According to patent US20220017618A1 (JIANGSU HENGRUI MEDICINE, published 2022):

Columns and labels:
[1] = molecular target: T1, Full-length TIM-3 (TIM-3-full length) on TIM-3-overexpressing cells (human, UniProt Q8TDQ0 22-301); assay: binding to TIM-3-overexpressing cells, hybridoma screening (clones positive for cell binding)
T1 construct: It was used to construct the TIM-3-overexpressing cell lines; The template is UniProt Q8TDQ0 (printed); also called human TIM-3; HAVCR2

[2] = molecular target: T2, TIM-3 extracellular region with Flag and His tags: TIM-3-Flag-His (human); assay: TIM-3 binding ELISA, hybridoma screening (clones positive for protein binding)
T2 construct: The template is UniProt Q8TDQ0 (printed); also called human TIM-3; HAVCR2

B1: mAb-1799 (antibody, V domains shown)
VH: EVKLVESEGGLVQPGSSMKLSCTASGFTFSDYYMAWVRQVPEKGLEWVANINYDGSSTYYLDSLKSRFIISRDNAKNILYLQMNSLKSDDTATYYCARDVGYYGGNYGFAYWGQGTLVTVSA
VL: DIQMTQSPASLSASVGETVTITCRASDNIYSYLAWYQQKQGKSPQLLVYNAKTLAEGVPSRFSGSGSGTQFSLKINSLQPEDFGSYYCQQHYGSPLTFGAGTKLELK
notes: Murine antibody secreted by a hybridoma
B1: binds [1]; binds [2].
